Biological target: T1, human SOD1^G93A (Zn/Cu superoxide dismutase, glycine to alanine at position 93) (human, UniProt P00441 1-154, G93A)
T1 construct: Zn/Cu superoxide dismutase (SOD1), human, with the ALS-linked mutation G93A; The introduction calls SOD1 a 32 kDa homodimer; also called mutant SOD1^G93A; mutant SOD1; source: E. coli BL-21, grown without Zn2+ and Cu2+ supplements, purified to homogeneity under non-denaturing conditions
Assay: co-IP; purified SOD1^G93A (2 µg) incubated with recombinant D-DT (0.2, 0.5, 1, 2, 5 and 10 µg); immunoprecipitation overnight at 4 °C with B8H10 antibody (misfolded SOD1) crosslinked to protein G Dynabeads; IP buffer 0.05 M Tris pH 7.4, 0.4 M NaCl, 0.5% Nonidet P-40; bound and unbound fractions immunoblotted for SOD1 and D-DT
Conditions: both partners purified

T1 sequence (P00441 whole entry G94A): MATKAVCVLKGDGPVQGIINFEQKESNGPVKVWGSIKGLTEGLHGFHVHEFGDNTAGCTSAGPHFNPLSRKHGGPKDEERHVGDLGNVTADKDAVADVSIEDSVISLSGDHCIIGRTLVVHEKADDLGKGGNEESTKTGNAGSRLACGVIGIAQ

B1: recombinant human D-dopachrome tautomerase (D-DT/MIF-2) (enzyme)
chain: PFLELDTNLPANRVPAGLEKRLCAAAASILGKPADRVNVTVRPGLAMALSGSTEPCAQLSISSIGVVGTAEDNRSHSAHFFEFLTKELALGQDRILIRFFPLESWQIGKIGTVMTFL
notes: D-dopachrome tautomerase (D-DT, MIF-2), human; also called recombinant D-DT; source: recombinant
Question: Does B1 bind?
Answer: Result: binds

— article PMC9187739, “MIF homolog d-dopachrome tautomerase (D-DT/MIF-2) does not inhibit accumulation and toxicity of misfolded SOD1” (Scientific Reports, 2022)
